Results as given in PMC9325753, “Chilling-induced phosphorylation of IPA1 by OsSAPK6 activates chilling tolerance responses in rice”.
Positions count from the first letter of the chain named.

T1: GST-IPA1 (Oryza sativa, UniProt Q7EXZ2 1-417)
T1 sequence: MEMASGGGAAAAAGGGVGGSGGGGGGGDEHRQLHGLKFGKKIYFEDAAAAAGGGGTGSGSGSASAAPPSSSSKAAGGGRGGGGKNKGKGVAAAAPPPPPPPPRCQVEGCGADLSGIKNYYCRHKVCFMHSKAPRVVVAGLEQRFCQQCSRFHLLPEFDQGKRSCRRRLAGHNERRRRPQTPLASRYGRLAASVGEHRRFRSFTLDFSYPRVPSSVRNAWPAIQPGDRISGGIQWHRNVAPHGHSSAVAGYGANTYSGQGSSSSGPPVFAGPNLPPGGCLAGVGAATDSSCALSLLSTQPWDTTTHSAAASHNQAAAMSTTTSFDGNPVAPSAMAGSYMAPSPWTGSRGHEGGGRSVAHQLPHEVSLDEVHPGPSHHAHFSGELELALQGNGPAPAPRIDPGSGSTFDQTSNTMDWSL

B1: Biotin-P2 (OsCBF3 promoter) (dsDNA)
DNA 1: TACCTAGGTTTTAAGTTATAGTACTTACAATTTTTTGATGAG
DNA 2: CTCATCAAAAAATTGTAAGTACTATAACTTAAAACCTAGGTA
B2: Biotin-P2-m (GTAC to ATAC) (dsDNA)
DNA 1: B1 DNA 1 with G21A
DNA 2: B1 DNA 2 with C22T

Molecular target: T1, GST-IPA1
Assay: EMSA; LightShift Chemiluminescent EMSA Kit (Thermo 20148) per manufacturer; buffer, salt, pH and temperature not stated
Settings: protein: recombinant; tags: N-terminal GST (pGEX-4t-1); label: 5'-biotin on strand 1; blunt

Row | Binder | binding result
1 | B1 | binds
2 | B2 | no binding
